T1: G9a and GLP (Homo sapiens, UniProt Q96KQ7+Q9H9B1)
T1 sequence (Q96KQ7 2-1210 limits assumed): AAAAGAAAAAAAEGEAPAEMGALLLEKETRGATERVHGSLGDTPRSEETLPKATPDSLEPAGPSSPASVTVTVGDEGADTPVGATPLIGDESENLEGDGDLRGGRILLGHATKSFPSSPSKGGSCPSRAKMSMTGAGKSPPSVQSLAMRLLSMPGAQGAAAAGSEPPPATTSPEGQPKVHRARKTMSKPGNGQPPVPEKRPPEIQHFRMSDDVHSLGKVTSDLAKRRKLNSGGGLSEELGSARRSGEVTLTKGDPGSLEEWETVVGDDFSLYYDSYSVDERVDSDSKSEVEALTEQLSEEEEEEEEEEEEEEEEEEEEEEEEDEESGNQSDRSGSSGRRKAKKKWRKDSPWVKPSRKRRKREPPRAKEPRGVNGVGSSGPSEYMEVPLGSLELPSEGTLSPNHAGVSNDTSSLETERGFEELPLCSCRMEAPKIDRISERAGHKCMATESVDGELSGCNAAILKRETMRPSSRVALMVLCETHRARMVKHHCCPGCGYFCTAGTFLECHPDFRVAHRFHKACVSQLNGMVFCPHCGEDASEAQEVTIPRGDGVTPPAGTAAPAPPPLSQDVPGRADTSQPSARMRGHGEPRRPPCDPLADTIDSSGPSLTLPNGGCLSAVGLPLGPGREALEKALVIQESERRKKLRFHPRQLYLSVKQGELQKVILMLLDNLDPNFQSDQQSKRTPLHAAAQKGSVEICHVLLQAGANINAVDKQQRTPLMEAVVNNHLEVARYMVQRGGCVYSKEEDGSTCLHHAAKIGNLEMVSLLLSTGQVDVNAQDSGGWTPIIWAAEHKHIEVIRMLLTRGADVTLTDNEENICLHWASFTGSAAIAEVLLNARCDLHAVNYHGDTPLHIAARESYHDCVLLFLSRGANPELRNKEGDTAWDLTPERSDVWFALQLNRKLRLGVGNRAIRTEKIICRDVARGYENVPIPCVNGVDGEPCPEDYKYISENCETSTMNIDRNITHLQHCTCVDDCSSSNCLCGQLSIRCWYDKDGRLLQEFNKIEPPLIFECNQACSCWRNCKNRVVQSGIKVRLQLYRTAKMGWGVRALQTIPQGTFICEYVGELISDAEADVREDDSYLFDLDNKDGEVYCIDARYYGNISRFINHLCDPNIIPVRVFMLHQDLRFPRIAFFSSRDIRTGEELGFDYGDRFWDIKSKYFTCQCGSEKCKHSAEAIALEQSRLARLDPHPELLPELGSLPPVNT
T1 sequence (Q9H9B1 2-1298 limits assumed): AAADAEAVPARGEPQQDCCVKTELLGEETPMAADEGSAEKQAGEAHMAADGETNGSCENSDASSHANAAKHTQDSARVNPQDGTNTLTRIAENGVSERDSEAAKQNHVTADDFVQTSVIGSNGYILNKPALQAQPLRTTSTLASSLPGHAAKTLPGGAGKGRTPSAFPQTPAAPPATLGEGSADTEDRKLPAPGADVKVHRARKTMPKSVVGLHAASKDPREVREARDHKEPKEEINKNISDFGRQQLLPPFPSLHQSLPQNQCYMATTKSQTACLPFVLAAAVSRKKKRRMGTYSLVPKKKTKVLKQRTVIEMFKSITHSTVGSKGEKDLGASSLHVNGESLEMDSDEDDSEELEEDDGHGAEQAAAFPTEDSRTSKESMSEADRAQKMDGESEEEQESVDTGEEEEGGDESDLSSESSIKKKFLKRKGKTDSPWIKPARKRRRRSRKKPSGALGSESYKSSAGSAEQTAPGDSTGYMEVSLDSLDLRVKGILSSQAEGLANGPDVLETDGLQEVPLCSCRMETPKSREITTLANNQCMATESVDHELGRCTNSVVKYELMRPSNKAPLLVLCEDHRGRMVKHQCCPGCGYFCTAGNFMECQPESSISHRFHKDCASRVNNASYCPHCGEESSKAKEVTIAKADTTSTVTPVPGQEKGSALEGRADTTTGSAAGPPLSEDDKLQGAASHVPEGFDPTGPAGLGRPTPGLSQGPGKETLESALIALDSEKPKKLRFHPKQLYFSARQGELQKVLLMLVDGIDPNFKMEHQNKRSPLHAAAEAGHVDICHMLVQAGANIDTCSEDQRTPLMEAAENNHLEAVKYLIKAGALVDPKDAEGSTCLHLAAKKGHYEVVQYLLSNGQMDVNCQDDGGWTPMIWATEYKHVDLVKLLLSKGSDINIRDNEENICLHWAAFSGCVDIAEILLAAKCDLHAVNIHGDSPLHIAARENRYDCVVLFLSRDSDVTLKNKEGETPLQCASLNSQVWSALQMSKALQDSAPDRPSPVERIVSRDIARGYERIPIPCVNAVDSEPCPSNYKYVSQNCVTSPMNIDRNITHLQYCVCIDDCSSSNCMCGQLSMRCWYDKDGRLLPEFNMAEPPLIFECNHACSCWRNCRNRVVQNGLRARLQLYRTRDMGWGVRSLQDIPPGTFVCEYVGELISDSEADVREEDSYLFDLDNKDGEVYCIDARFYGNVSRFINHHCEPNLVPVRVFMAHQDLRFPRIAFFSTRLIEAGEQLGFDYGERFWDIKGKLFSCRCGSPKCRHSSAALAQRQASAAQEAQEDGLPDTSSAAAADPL

B1: MAP4 (protein, UniProt P27816 2-1152, looked up)
Microtubule-associated …: ADLSLADALTEPSPDIEGEIKRDFIATLEAEAFDDVVGETVGKTDYIPLLDVDEKTGNSESKKKPCSETSQIEDTPSSKPTLLANGGHGVEGSDTTGSPTEFLEEKMAYQEYPNSQNWPEDTNFCFQPEQVVDPIQTDPFKMYHDDDLADLVFPSSATADTSIFAGQNDPLKDSYGMSPCNTAVVPQGWSVEALNSPHSESFVSPEAVAEPPQPTAVPLELAKEIEMASEERPPAQALEIMMGLKTTDMAPSKETEMALAKDMALATKTEVALAKDMESPTKLDVTLAKDMQPSMESDMALVKDMELPTEKEVALVKDVRWPTETDVSSAKNVVLPTETEVAPAKDVTLLKETERASPIKMDLAPSKDMGPPKENKKETERASPIKMDLAPSKDMGPPKENKIVPAKDLVLLSEIEVAQANDIISSTEISSAEKVALSSETEVALARDMTLPPETNVILTKDKALPLEAEVAPVKDMAQLPETEIAPAKDVAPSTVKEVGLLKDMSPLSETEMALGKDVTPPPETEVVLIKNVCLPPEMEVALTEDQVPALKTEAPLAKDGVLTLANNVTPAKDVPPLSETEATPVPIKDMEIAQTQKGISEDSHLESLQDVGQSAAPTFMISPETVTGTGKKCSLPAEEDSVLEKLGERKPCNSQPSELSSETSGIARPEEGRPVVSGTGNDITTPPNKELPPSPEKKTKPLATTQPAKTSTSKAKTQPTSLPKQPAPTTIGGLNKKPMSLASGLVPAAPPKRPAVASARPSILPSKDVKPKPIADAKAPEKRASPSKPASAPASRSGSKSTQTVAKTTTAAAVASTGPSSRSPSTLLPKKPTAIKTEGKPAEVKKMTAKSVPADLSRPKSTSTSSMKKTTTLSGTAPAAGVVPSRVKATPMPSRPSTTPFIDKKPTSAKPSSTTPRLSRLATNTSAPDLKNVRSKVGSTENIKHQPGGGRAKVEKKTEAAATTRKPESNAVTKTAGPIASAQKQPAGKVQIVSKKVSYSHIQSKCGSKDNIKHVPGGGNVQIQNKKVDISKVSSKCGSKANIKHKPGGGDVKIESQKLNFKEKAQAKVGSLDNVGHLPAGGAVKTEGGGSEAPLCPGPPAGEEPAISEAAPEAGAPTSASGLNGHPTLSGGGDQREAQTLDSQIQETSI
B2: UBXN1 (protein, UniProt Q04323 2-297, looked up)
UBX domain-containing protein …: AELTALESLIEMGFPRGRAEKALALTGNQGIEAAMDWLMEHEDDPDVDEPLETPLGHILGREPTSSEQGGLEGSGSAAGEGKPALSEEERQEQTKRMLELVAQKQREREEREEREALERERQRRRQGQELSAARQRLQEDEMRRAAEERRREKAEELAARQRVREKIERDKAERAKKYGGSVGSQPPPVAPEPGPVPSSPSQEPPTKREYDQCRIQVRLPDGTSLTQTFRAREQLAAVRLYVELHRGEELGGGQDPVQLLSGFPRRAFSEADMERPLQELGLVPSAVLIVAKKCPS
B3: SNRNP40 (protein, UniProt Q96DI7 1-357, looked up)
U5 small nuclear …: MIEQQKRKGPELPLVPVKRQRHELLLGAGSGPGAGQQQATPGALLQAGPPRCSSLQAPIMLLSGHEGEVYCCKFHPNGSTLASAGFDRLILLWNVYGDCDNYATLKGHSGAVMELHYNTDGSMLFSASTDKTVAVWDSETGERVKRLKGHTSFVNSCYPARRGPQLVCTGSDDGTVKLWDIRKKAAIQTFQNTYQVLAVTFNDTSDQIISGGIDNDIKVWDLRQNKLTYTMRGHADSVTGLSLSSEGSYLLSNAMDNTVRVWDVRPFAPKERCVKIFQGNVHNFEKNLLRCSWSPDGSKIAAGSADRFVYVWDTTSRRILYKLPGHAGSINEVAFHPDEPIIISASSDKRLYMGEIQ
B4: UBAP2L (protein, UniProt Q14157 1-1087, looked up)
Ubiquitin-associated protein …: MMTSVGTNRARGNWEQPQNQNQTQHKQRPQATAEQIRLAQMISDHNDADFEEKVKQLIDITGKNQDECVIALHDCNGDVNRAINVLLEGNPDTHSWEMVGKKKGVSGQKDGGQTESNEEGKENRDRDRDYSRRRGGPPRRGRGASRGREFRGQENGLDGTKSGGPSGRGTERGRRGRGRGRGGSGRRGGRFSAQGMGTFNPADYAEPANTDDNYGNSSGNTWNNTGHFEPDDGTSAWRTATEEWGTEDWNEDLSETKIFTASNVSSVPLPAENVTITAGQRIDLAVLLGKTPSTMENDSSNLDPSQAPSLAQPLVFSNSKQTAISQPASGNTFSHHSMVSMLGKGFGDVGEAKGGSTTGSQFLEQFKTAQALAQLAAQHSQSGSTTTSSWDMGSTTQSPSLVQYDLKNPSDSAVHSPFTKRQAFTPSSTMMEVFLQEKSPAVATSTAAPPPPSSPLPSKSTSAPQMSPGSSDNQSSSPQPAQQKLKQQKKKASLTSKIPALAVEMPGSADISGLNLQFGALQFGSEPVLSDYESTPTTSASSSQAPSSLYTSTASESSSTISSNQSQESGYQSGPIQSTTYTSQNNAQGPLYEQRSTQTRRYPSSISSSPQKDLTQAKNGFSSVQATQLQTTQSVEGATGSAVKSDSPSTSSIPPLNETVSAASLLTTTNQHSSSLGGLSHSEEIPNTTTTQHSSTLSTQQNTLSSSTSSGRTSTSTLLHTSVESEANLHSSSSTFSTTSSTVSAPPPVVSVSSSLNSGSSLGLSLGSNSTVTASTRSSVATTSGKAPPNLPPGVPPLLPNPYIMAPGLLHAYPPQVYGYDDLQMLQTRFPLDYYSIPFPTPTTPLTGRDGSLASNPYSGDLTKFGRGDASSPAPATTLAQPQQNQTQTHHTTQQTFLNPALPPGYSYTSLPYYTGVPGLPSTFQYGPAVFPVAPTSSKQHGVNVSVNASATPFQQPSGYGSHGYNTGVSVTSSNTGVPDISGSVYSKTQQSFEKQGFHSGTPAASFNLPSALGSGGPINPATAAAYPPAPFMHILTPHQQPHSQILHHHLQQDGQTGSGQRSQTSSIPQKPQTNKSAYNSYSWGAN

Test system: 3×MBT domain of L3MBTL1
Assay: Triple SILAC pull-down, 3xMBT/3xMBTD355N ratio (cytoplasmic, nuclear and chromatin fractions of 293T cells);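 also: proteins quantified with MaxQuant, requiring at least two unique peptides and quantification in both label directions, normalized to the mean of proteins from a digested loading control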
Format: binding, human
Conditions: SILAC ratio 3xMBT vs 3xMBTD355N pull-down, 293T cells; experiment with UNC0638 in heavy SILAC media; all values in log base 2

| Molecule | 3xMBT/D355N UNC Heavy [log base 2] |
| --- | --- |
| B1 | 1.41 |
| B2 | 0.62 |
| B3 | 2.39 |
| B4 | 2.82 |

Same assay, conditions: SILAC ratio 3xMBT vs 3xMBTD355N pull-down, 293T cells; experiment with UNC0638 in light SILAC media; all values in log base 2

| Molecule | 3xMBT/D355N UNC Light [log base 2] |
| --- | --- |
| B1 | 2.75 |
| B2 | 1.91 |
| B3 | 2.64 |
| B4 | 1.83 |

Target: T1, G9a and GLP
Assay: Triple SILAC pull-down after UNC0638 treatment of 293T cells, DMSO/UNC0638 ratio of protein captured by 3×MBT;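 also: mass spectrometry (Q-Exactive) SILAC quantitation, DMSO/UNC0638 ratio computed after subtracting 3×MBTD355N mutant pull-down background, only proteins with at least twofold 3×MBT over mutant signal considered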
Format: cell-based
Parameters: endogenous in cells; host or cells: HEK 293T
Conditions: SILAC ratio DMSO relative to UNC0638, pull-down with 3xMBT; UNC0638 in heavy SILAC media; all values in log base 2

| Relative to UNC0638 UNC Heavy [log base 2] | Molecule |
| --- | --- |
| 0.13 | B1 |
| 0.12 | B2 |
| 0.27 | B3 |
| 0.22 | B4 |

Same assay, conditions: SILAC ratio DMSO relative to UNC0638, pull-down with 3xMBT; UNC0638 in light SILAC media; all values in log base 2

| Relative to UNC0638 UNC Light [log base 2] | Molecule |
| --- | --- |
| 0.03 | B1 |
| 0.04 | B2 |
| −0.12 | B3 |
| −0.06 | B4 |

Same assay, conditions: average of UNC Light and UNC Heavy experiments; all values in log base 2

| Relative to UNC0638 Average [log base 2] | Molecule |
| --- | --- |
| 0.08 | B1 |
| 0.08 | B2 |
| 0.07 | B3 |
| 0.08 | B4 |
